Laboratory results as given in the supplement of paper PMC10724198.
± gives the standard deviation of the averaged measurements.

What was measured:
Saccharomyces cerevisiae [1] = experiment: protein stability index of tFT-peptide fusion (C-terminal peptide) (PSI (0-1 scale)); higher = more stable (slower turnover)
Protocol: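 MPS profiling in S. cerevisiae of the tFT-X12 degron library: putative degron peptides plus stable controls, 12 aa, fused to the C-terminus of a sfGFP-mCherry timer. Cells are FACS-sorted into 8 mCherry/sfGFP bins and deep-sequenced. PSI runs from 0 (unstable) to 1 (stable). Backgrounds are wild type, das1Δ and doa10Δ at 30 °C, and wild type, das1Δ, cdc34-1 and cdc53-1 at 37 °C; 2-3 technical replicates each.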

Saccharomyces cerevisiae [2] = experiment: as above; conditions: genetic background: wild type; temperature: 30 C
[3] = genetic background: cdc34-1, temperature: 37 C
[4] = genetic background: cdc53-1, temperature: 37 C
[5] = genetic background: das1 deletion, temperature: 30 C
[6] = genetic background: das1 deletion, temperature: 37 C
[7] = genetic background: doa10 deletion, temperature: 30 C
[8] = genetic background: wild type, temperature: 30 C
[9] = genetic background: wild type, temperature: 37 C
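Further: PSI is a weighted mean of sequencing reads over stability bins, variants kept only with over 10 reads, mCherry proximal and sfGFP distal, peptide attached via GGGS linker.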

| Sequence | protein stability index (Saccharomyces cerevisiae [1]; [3]) | protein stability index (Saccharomyces cerevisiae [1]; [4]) | protein stability index (Saccharomyces cerevisiae [1]; [5]) | protein stability index (Saccharomyces cerevisiae [1]; [6]) | protein stability index (Saccharomyces cerevisiae [1]; [7]) | protein stability index (Saccharomyces cerevisiae [1]; [8]) | protein stability index (Saccharomyces cerevisiae [1]; [9]) | protein stability index (Saccharomyces cerevisiae [2]) |
| --- | --- | --- | --- | --- | --- | --- | --- | --- |
| PLFVLTILLFLC | 0.165 ± 0.042 | 0.314 ± 0.036 | 0.258 ± 0.051 | 0.367 ± 0.017 | 0.156 ± 0.0098 | 0.137 ± 0.013 | 0.179 ± 0.0024 | 0.1706 ± 0.00068 |
| VPLHPPPTVPYI | 0.674 ± 0.063 | 0.728 ± 0.014 | 0.66 ± 0.015 | 0.7244 ± 0.0069 | 0.679 ± 0.011 | 0.675 ± 0.034 | 0.7038 ± 0.0066 | 0.704 ± 0.03 |
| FRWLAFALLFGC | 0.416 ± 0.011 | 0.477 ± 0.027 | 0.38 ± 0.012 | 0.495 ± 0.025 | 0.1758 ± 0.00032 | 0.166 ± 0.018 | 0.348 ± 0.0068 | 0.245 ± 0.0079 |
| RCFLPVFCFVVF | 0.275 ± 0.0069 | 0.272 ± 0.0068 | 0.242 ± 0.037 | 0.413 ± 0.006 | 0.278 ± 0.014 | 0.227 ± 0.023 | 0.36 ± 0.0038 | 0.314 ± 0.018 |
| TFRVLREIILTA | 0.2 ± 0.021 | 0.228 ± 0.021 | 0.206 ± 0.029 | 0.33 ± 0.023 | 0.151 ± 0.011 | 0.178 ± 0.024 | 0.277 ± 0.0079 | 0.249 ± 0.0078 |
| SFGSMIITYAWG | 0.616 ± 0.011 | 0.623 ± 0.0089 | 0.467 ± 0.021 | 0.638 ± 0.021 | 0.491 ± 0.065 | 0.486 ± 0.034 | 0.637 ± 0.026 | 0.473 ± 0.034 |
| VGLRLSVIFVVI | 0.265 ± 0.019 | 0.2985 ± 0.0021 | 0.213 ± 0.033 | 0.428 ± 0.027 | 0.195 ± 0.0031 | 0.213 ± 0.027 | 0.391 ± 0.049 | 0.372 ± 0.038 |
| QARVFWIIIGTA | 0.33 ± 0.029 | 0.412 ± 0.03 | 0.241 ± 0.029 | 0.482 ± 0.011 | 0.163 ± 0.011 | 0.194 ± 0.026 | 0.376 ± 0.023 | 0.343 ± 0.0078 |
| SRMIPSAFLLVI | 0.589 ± 0.016 | 0.64 ± 0.012 | 0.507 ± 0.016 | 0.627 ± 0.012 | 0.348 ± 0.012 | 0.371 ± 0.02 | 0.513 ± 0.011 | 0.442 ± 0.01 |
| VCRVAAWLGWFV | 0.522 ± 0.016 | 0.708 ± 0.024 | 0.637 ± 0.019 | 0.7292 ± 0.00075 | 0.0897 ± 0.012 | 0.0909 ± 0.024 | 0.1636 ± 0.0013 | 0.175 ± 0.025 |
| HLFDMFFFLLHV | 0.514 ± 0.047 | 0.5932 ± 0.0025 | 0.488 ± 0.022 | 0.611 ± 0.0073 | 0.343 ± 0.0048 | 0.33 ± 0.022 | 0.504 ± 0.01 | 0.441 ± 0.027 |
| WFWTFIWLIMDD | 0.435 ± 0.049 | 0.501 ± 0.044 | 0.388 ± 0.016 | 0.521 ± 0.025 | 0.399 ± 0.027 | 0.41 ± 0.039 | 0.504 ± 0.043 | 0.439 ± 0.0064 |
| GAPIFSSFLLFC | 0.541 ± 0.054 | 0.652 ± 0.022 | 0.579 ± 0.032 | 0.667 ± 0.012 | 0.332 ± 0.028 | 0.31 ± 0.028 | 0.5425 ± 0.0023 | 0.412 ± 0.026 |
| LVCFFLFSLFYL | 0.433 ± 0.02 | 0.479 ± 0.018 | 0.335 ± 0.028 | 0.5331 ± 0.0039 | 0.357 ± 0.015 | 0.358 ± 0.029 | 0.5098 ± 0.0013 | 0.386 ± 0.037 |
| PRPISRRTLILS | 0.642 ± 0.047 | 0.7053 ± 0.0034 | 0.545 ± 0.026 | 0.721 ± 0.0088 | 0.308 ± 0.0098 | 0.354 ± 0.023 | 0.554 ± 0.02 | 0.472 ± 0.062 |
| ILVYFQAHAIKI | 0.1592 ± 0.00018 | 0.189 ± 0.015 | 0.0937 ± 0.022 | 0.199 ± 0.0036 | 0.0645 ± 0.012 | 0.0874 ± 0.027 | 0.202 ± 0.01 | 0.129 ± 0.0092 |
| GLCVGRMFVRQI | 0.6614 ± 0.0031 | 0.7126 ± 0.0054 | 0.661 ± 0.018 | 0.7222 ± 0.005 | 0.248 ± 0.0031 | 0.263 ± 0.026 | 0.5463 ± 0.0024 | 0.454 ± 0.011 |
| TSARPFLYSFRP | 0.69 ± 0.036 | 0.7386 ± 0.0065 | 0.654 ± 0.018 | 0.739 ± 0.0082 | 0.65 ± 0.016 | 0.642 ± 0.019 | 0.705 ± 0.027 | 0.00961 ± 0.014 |
| WAFRLWWFFCLV | 0.402 ± 0.048 | 0.452 ± 0.02 | 0.437 ± 0.022 | 0.579 ± 0.067 | 0.277 ± 0.01 | 0.257 ± 0.015 | 0.273 ± 0.0095 | 0.375 ± 0.034 |
| FFLPIFFSIFLS | 0.068 ± 0.038 | 0.0346 ± 0.0085 | 0.152 ± 0.017 | 0.198 ± 0.0023 | 0.281 ± 0.0056 | 0.108 ± 0.022 | 0.155 ± 0.0049 | 0.156 ± 0.013 |

| Sequence | protein stability index (Saccharomyces cerevisiae [1]; [3]) | protein stability index (Saccharomyces cerevisiae [1]; [4]) | protein stability index (Saccharomyces cerevisiae [1]; [5]) | protein stability index (Saccharomyces cerevisiae [1]; [6]) | protein stability index (Saccharomyces cerevisiae [1]; [7]) | protein stability index (Saccharomyces cerevisiae [1]; [8]) | protein stability index (Saccharomyces cerevisiae [1]; [9]) | protein stability index (Saccharomyces cerevisiae [2]) |
| --- | --- | --- | --- | --- | --- | --- | --- | --- |
| GLCSFPCSSCRL | 0.875 ± 0.023 | 0.8868 ± 0.0025 | 0.76 ± 0.018 | 0.812 ± 0.028 | 0.772 ± 0.024 | 0.772 ± 0.054 | 0.836 ± 0.021 | 0.756 ± 0.052 |
| KYHLAAQLLVLL | 0.602 ± 0.022 | 0.649 ± 0.015 | 0.531 ± 0.022 | 0.6431 ± 0.0046 | 0.401 ± 0.011 | 0.408 ± 0.0063 | 0.556 ± 0.0067 | 0.459 ± 0.037 |
| LLHSLILLEWVF | 0.148 ± 0.01 | 0.146 ± 0.02 | 0.19 ± 0.032 | 0.267 ± 0.011 | 0.145 ± 0.013 | 0.182 ± 0.02 | 0.238 ± 0.0042 | 0.272 ± 0.021 |
| PFDTPSHPNPLF | 0.707 ± 0.034 | 0.789 ± 0.086 | 0.69 ± 0.026 | 0.777 ± 0.024 | 0.711 ± 0.026 | 0.729 ± 0.014 | 0.762 ± 0.019 | 0.744 ± 0.037 |
| RVHYELEQIVIK | 0.632 ± 0.1 | 0.699 ± 0.019 | 0.581 ± 0.0072 | 0.664 ± 0.059 | 0.585 ± 0.053 | 0.574 ± 0.025 | 0.62 ± 0.064 | 0.518 ± 0.089 |
| SLFVLLVSALLH | 0.173 ± 0.029 | 0.32 ± 0.025 | 0.212 ± 0.025 | 0.38251 ± 0.0002 | 0.18 ± 0.0094 | 0.194 ± 0.033 | 0.328 ± 0.011 | 0.345 ± 0.02 |
| RLVWGGLEMFVC | 0.511 ± 0.024 | 0.627 ± 0.013 | 0.496 ± 0.026 | 0.654 ± 0.0094 | 0.109 ± 0.019 | 0.131 ± 0.0028 | 0.21 ± 0.0073 | 0.235 ± 0.043 |
| CLFLVFCFCVCS | 0.59488 ± 0.00049 | 0.62042 ± 0.00025 | 0.547 ± 0.031 | 0.596 ± 0.077 | 0.534 ± 0.018 | 0.512 ± 0.02 | 0.531 ± 0.032 | 0.498 ± 0.048 |
| FPGLPVFFPPPL | 0.707 ± 0.052 | 0.766 ± 0.015 | 0.689 ± 0.026 | 0.769 ± 0.012 | 0.709 ± 0.039 | 0.703 ± 0.011 | 0.731 ± 0.012 | 0.726 ± 0.015 |
| VIGSFVRVFGIM | 0.698 ± 0.024 | 0.751 ± 0.018 | 0.617 ± 0.017 | 0.728 ± 0.026 | 0.489 ± 0.041 | 0.506 ± 0.0097 | 0.6657 ± 0.00035 | 0.512 ± 0.12 |
| VFCPRACWEFVG | 0.567 ± 0.041 | 0.737 ± 0.027 | 0.649 ± 0.021 | 0.7777 ± 0.0067 | 0.12 ± 0.0079 | 0.143 ± 0.0095 | 0.213 ± 0.0029 | 0.222 ± 0.034 |
| RFTFSVVFCLSF | 0.465 ± 0.011 | 0.5 ± 0.018 | 0.432 ± 0.011 | 0.504 ± 0.023 | 0.451 ± 0.022 | 0.436 ± 0.026 | 0.47 ± 0.012 | 0.47 ± 0.038 |
| CSSFFLLLFFLF | 0.351 ± 0.051 | 0.448 ± 0.018 | 0.335 ± 0.021 | 0.451 ± 0.029 | 0.301 ± 0.021 | 0.268 ± 0.01 | 0.407 ± 0.0056 | 0.311 ± 0.019 |
| PRGKGSSGELCV | 0.683 ± 0.038 | 0.7344 ± 0.0044 | 0.662 ± 0.025 | 0.707 ± 0.03 | 0.6363 ± 0.0063 | 0.647 ± 0.033 | 0.712 ± 0.012 | 0.578 ± 0.15 |
| YRNRKMYCITNC | 0.682 ± 0.03 | 0.737 ± 0.017 | 0.636 ± 0.038 | 0.743 ± 0.018 | 0.207 ± 0.044 | 0.26 ± 0.017 | 0.51 ± 0.058 | 0.423 ± 0.014 |
| VFFCLCLCLFFV | 0.432 ± 0.023 | 0.463 ± 0.012 | 0.341 ± 0.018 | 0.473 ± 0.028 | 0.299 ± 0.0062 | 0.314 ± 0.022 | 0.45 ± 0.036 | 0.368 ± 0.031 |
| YLGPHLRWARCV | 0.495 ± 0.018 | 0.715 ± 0.02 | 0.662 ± 0.027 | 0.768 ± 0.025 | 0.1228 ± 0.00053 | 0.125 ± 0.016 | 0.183 ± 0.033 | 0.254 ± 0.015 |
| GGAVGVRGGCRG | 0.565 ± 0.12 | 0.7112 ± 0.0027 | 0.496 ± 0.017 | 0.635 ± 0.036 | 0.522 ± 0.05 | 0.512 ± 0.027 | 0.607 ± 0.026 | 0.452 ± 0.033 |
| DRHCLVSLSPDG | 0.64 ± 0.03 | 0.665 ± 0.03 | 0.618 ± 0.015 | 0.686 ± 0.029 | 0.623 ± 0.016 | 0.6079 ± 0.0033 | 0.678 ± 0.033 | 0.5 ± 0.1 |
